Blank lines part the entries; values can stand above or below the binder they belong to.
Legend:
[1] = target: P7, fluorescein-labelled proline-rich peptide from the SOS1 proline-rich domain (human); assay: fluorescence polarisation; 0.2 µM fluorescein-labelled peptide, SH3 domain titrated 0 to 200 µM; 30 mM Tris/HCl pH 7.5, 5 mM MgCl2, 3 mM DTT, 25 °C; quadratic ligand binding equation
[2] = target: SOS1 P7 (Homo sapiens), Q07889; assay: fluorescence polarization

Kd [1]: 0.2 µM
B1: ARHGAP12 SH3 domain, GST cleaved (domain or fragment)
chain: PGQVYIEVEYDYEYEAKDRKIVIKQGERYILVKKTNDDWWQVKPDENSKAFYVPAQYVKEVTR

Kd [2]: < 0.5 µM
B2: ARHGAP12 SH3, Q8IWW6 (protein)
chain: KIIPGQVYIEVEYDYEYEAKDRKIVIKQGERYILVKKTNDDWWQVKPDENSKAFYVPAQYVKEVTRKAL
